Assays:
[1] = target: human CD132 (common gamma chain cytokine receptor) (human) (UniProt P31785)
[2] = target: human CD132 (common gamma chain cytokine receptor) (human, UniProt P31785); assay: cell-based or functional assay
Chain of human CD132 (common gamma chain cytokine receptor) (P31785 23-262): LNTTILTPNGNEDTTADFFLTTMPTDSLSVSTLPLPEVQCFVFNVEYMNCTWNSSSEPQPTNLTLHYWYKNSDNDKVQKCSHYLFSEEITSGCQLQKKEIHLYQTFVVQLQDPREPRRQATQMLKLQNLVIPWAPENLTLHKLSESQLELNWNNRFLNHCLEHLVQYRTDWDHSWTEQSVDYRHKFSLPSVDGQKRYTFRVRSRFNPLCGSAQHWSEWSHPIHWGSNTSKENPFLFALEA

Chain of human CD132 (common gamma chain cytokine receptor) (human) (P31785 23-262): as above

| maximum percent inhibition of IL-2-induced STAT5 phosphorylation in CD3+ T cells of human PBMCs (gradient dilutions, up to 200 nM antibody) [1] | IC50 of blocking human IL-21: IFN-γ secretion by NK92 cells (ELISA), relative to REGN7257 [2] | IC50 of blocking human IL-21: STAT3 phosphorylation in CD3+ T cells of human PBMCs (flow cytometry), relative to REGN7257 [2] | Molecule |
| --- | --- | --- | --- |
| 100% |  |  | REGN7257, pan CD132 blocking monoclonal antibody |
|  | 10 fold | < 2 fold | 2D4, humanized anti-CD132 monoclonal antibody (antibody, V domains shown) VH: QVQLVQSGAEVKKPGSSVKVSCKTSGFNIEDIYLHWVRQAPGQGLEWMGRIDPANGKSNYDPKFQGRVTITADTSTSTAYMELSSLRSEDTAVYYCAALRFFGLDYWGQGTLVTVSS VL: EIVLTQSPATLSLSPGERATLSCRATSSVSYMYWYQQKPGQAPELLIYRTSNLASGIPARFSGSGSGTDYTLTISSLEPEDFAVYYCQQWSSNPPTFGQGTKLEIK |

— article PMC11570697, “2D4, a humanized monoclonal antibody targeting CD132, is a promising treatment for systemic lupus erythematosus” (Signal Transduction and Targeted Therapy, 2024)
